Experimental data reported in the supplement of paper PMC11780869.

Tested on: Bacillus subtilis
Experiment: cleaved RNA product abundance (RNA/gDNA barcode ratio) relative to median wild-type variant (ratio to wild type); higher = more accumulation of the downstream cleavage product
In short: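 The B. subtilis chromosome carried reporter mRNAs, truncated aprE or tetM, containing barcoded RNase Y cleavage-site windows mutagenized using oligos with a 9% error rate. After growth in LB at 37°C from OD600 0.0003 to 0.3, cleaved RNA was gel-selected, reverse transcribed and barcode-sequenced next to genomic DNA barcodes, with UMI collapsing. Each construct's RNA:gDNA barcode ratio was scaled to the median construct with the unmutated site. That scaled ratio is reported as cleaved product abundance.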

[1] = experiment (reporter, strain, medium): exp 2b: truncated aprE reporter, strain BJT200, cleavage site: cggR-gapA (positions -7 to +36 mutated)
[2] = experiment (reporter, strain, medium): exp 4a: truncated aprE reporter, strain BJT201 with 2% xylose (RNase J1 expressed), cleavage site: cggR-gapA (positions -7 to +36 mutated)
[3] = experiment (reporter, strain, medium): exp 6: tetM reporter, strain 168, cleavage site: cggR-gapA (positions -7 to +36 mutated)
[4] = experiment (reporter, strain, medium): exp 8a: truncated aprE reporter, strain BJT201 with 2% xylose (RNase J1 expressed), cleavage site: glnRA (positions -5 to +31 mutated)

Row | Sequence | cleaved RNA product abundance [1] | cleaved RNA product abundance [2] | cleaved RNA product abundance [3] | cleaved RNA product abundance [4]
1 | ACAGACGAAGGAGCCGCAAAGAAGATATTAAGGGATGAATAATCCCTAAATATAAATATCTCTCACTTATTTAAA | 0.702 | 0.665 | 0.475 | –
2 | CGACATGTCCCGCTTCTTTCATTAAAACGTTAGCAACTGTTTTGCTATATACATTTACCTTTTAAGAGGAGGAAT | – | – | – | 0.868
3 | ACAGACGAAGGAGCCGCAAAGAAGTTATTAAGGGATGTATAATCCCTCAATATAAATATCTCTCACTTATTTAAA | 0.943 | 0.978 | 0.798 | –
4 | CGACATGTCCCGCTTCTTTCATTAATCCGTTAGAAAATGTTTTGCTATAAACATTTACCTTTTAAGAGGAGGAAT | – | – | – | 0.166
5 | ACAGACGAAGGAGCCGCAAAGAAGTTATTACGGGATGAATAAACCCTCAATATAAATATCTCTCACTTATTTAAA | – | 0.158 | – | –
6 | ACAGACGAAGGAGCCGCAAAGAAGTTATCAAGCGATGAATAATCCCTCAATATAAATATCTCTCACTTATTTAAA | – | 0.0711 | – | –
7 | CGACATGTCCCGCTTCTTTCATTAATCCGTTATCAACTGTTTTGCTATATCCATTTACCTTTTAAGAGGAGGAAT | – | – | – | 0.136
8 | CGACATGTCCCGCTTCTTTCATTAATCCGTTGGCAACTGATTTGCTATATACATTTACCTTTTAAGAGGAGGAAT | – | – | – | 0.729
9 | CGACATGTCCCGCTTCTTTCATTATTCCGTTAGCAACTGTTTTGCTATATACATTTCCCTTTTAAGAGGAGGAAT | – | – | – | 1.01
10 | ACAGACGAAGGAGCCGCAAAAAAGTTATTAAGAGATGAATAATCCCTCAATATAAATATCTCTCACTTATTTAAA | 0.126 | 0.133 | 0.0928 | –
11 | CGACATGTCCCGCTTCTTTCATTATTCCTTTACCAACTTTTTTGCTATATATATATACCTTTTAAGAGGAGGAAT | – | – | – | 0.182
12 | ACAGACGAAGGAGCCGCAAAGAAGTTATTAAGGCATGAATAATCCCTGAATATAAATATCTCTCACTTATTTAAA | 0.102 | 0.0864 | – | –
13 | ACAGACGAAGGAGCCGCAAAGAAGTTATTAAGAGATGTATAATCCCTCAATATAAATATCTCTCACTTATTTAAA | – | 0.229 | – | –
14 | ACAGACGAAGGAGCCGCATAGATGTTATTAAGGGATGAATAATCCCTCAATATAAATATCTCTCACTTATTTAAA | – | 1.38 | – | –
15 | CGACATGTCCCGCTTCTTTCATTAATCCGTTCGCAACTGTTTTACTATATACATTTACCTTTTAAGAGGAGGAAT | – | – | – | 0.418
16 | ACAGACGAAGGAGCCGCAAATAAGTTATTACGGGATGAATAATCCCTCAATATAAATATCTCTCACTTATTTAAA | – | 0.36 | – | –
17 | ACAGACGAAGGAGCCGCAAAAAAGTTATTAAGGGATGAATAATCTCTCAATATAAATATCTCTCACTTATTTAAA | 0.703 | 0.694 | 0.897 | –
18 | CGACATGTCCCGCTTCTTTCATTAATCCGTTAGCAACTGCTTTGCTATATACATTAACCTTTTAAGAGGAGGAAT | – | – | – | 0.575
19 | ACAGACGAAGGAGCCGCAAAGAAGTTATTAAGGTATGAATAATCCCCCAATATAAATATCTCTCACTTATTTAAA | – | 0.141 | – | –
20 | ACAGACGAAGGAGCCGCAAAGAAGTTATCAAGGGATGAATAATCCCTCACTATAAATATCTCTCACTTATTTAAA | – | 0.306 | – | –

Row | Sequence | cleaved RNA product abundance [1] | cleaved RNA product abundance [2] | cleaved RNA product abundance [3] | cleaved RNA product abundance [4]
21 | ACAGACGAAGGAGCCGCAAAGAAGTTATTAAGGAATGAATAATCCCTCAATATAAATATCTCTCACTTATTTAAA | 0.109 | 0.132 | 0.126 | –
22 | ACAGACGAAGGAGCCGCAAAGAAGTTATTAAGGAATGAATATTCCCTCAATATAAATATCTCTCACTTATTTAAA | 0.178 | 0.279 | – | –
23 | CGACATGTCCCGCTTCTTTCATTAATGCGTTAGCAACTGTTTTGGTATATACATTTACCTTTTAAGAGGAGGAAT | – | – | – | 0.244
24 | CGACATGTCCCGCTTCTTTCATTAATCCGTTATCAACTGATTTGCTATATACATTTACCTTTTAAGAGGAGGAAT | – | – | – | 0.286
25 | ACAGACGAAGGAGCCGCAAAGAAGTTATTAAGGGATGAATAATCACCCAATATAAATATCTCTCACTTATTTAAA | – | 0.129 | – | –
26 | ACAGACGAAGGAGCCGCAAGGAAGTTATTAAGGGATGAATAATCCCTCAATATAAATATCTCTCACTTATTTAAA | 0.954 | 0.863 | 1.21 | –
27 | CGACATGTCCCGCTTCTTTCATTATTCCGTTAGCAACTGTTTTGCTATTTACATTTACCTTTTAAGAGGAGGAAT | – | – | – | 0.131
28 | CGACATGTCCCGCTTCTTTCATTAATCCGTTATCAACTGTGTTGCTATATACATTTACCTTTTAAGAGGAGGAAT | – | – | – | 0.27
29 | ACAGACGAAGGAGCCGCAAAAAAGTTATTAACGGATGAATAATCCCTCAATATAAATATCTCTCACTTATTTAAA | – | 0.128 | – | –
30 | ACAGACGAAGGAGCCGCAAAAAAGTTATTTAGGGATGAATAATCCCTCAATATAAATATCTCTCACTTATTTAAA | – | 0.552 | – | –
31 | ACAGACGAAGGAGCCGCAAAGAAGTTATTAAGGGATGAATAATCGTTCAATATAAATATCTCTCACTTATTTAAA | – | 0.0943 | – | –
32 | ACAGACGAAGGAGCCGCATAGAAGTTATTAAGGTATGAATAATCCCTCAATATAAATATCTCTCACTTATTTAAA | – | 0.159 | – | –
33 | ACAGACGAAGGAGCCGCAAAGAAGTTATTAAGGGATGAACAATCCCTCAATAAAAATATCTCTCACTTATTTAAA | – | 0.151 | – | –
34 | ACAGACGAAGGAGCCGCAAAGAAGTCATTAAGGGATAAATAATCCCTCAATATAAATATCTCTCACTTATTTAAA | 0.195 | 0.308 | – | –
35 | ACAGACGAAGGAGCCGCAAATTAGTTATTAAGGGATGAATAATCCCTCAATATAAATATCTCTCACTTATTTAAA | – | 0.919 | – | –
36 | ACAGACGAAGGAGCCGCAAAGAAGTTATTAAGGCATGAATAATCCCTCAATATGAATATCTCTCACTTATTTAAA | – | 0.0354 | – | –
37 | ACAGACGAAGGAGCCGCAAAAAAGTTATTAAGAGATGAATAATCCGTCAATATAAATATCTCTCACTTATTTAAA | – | 0.0894 | – | –
38 | CGACATGTCCCGCTTCTTTCATTAATCCATTAGCAACTGTTTTGCTATATACATTTACTTTTTAAGAGGAGGAAT | – | – | – | 0.808
39 | ACAGACGAAGGAGCCGCAAAGAAGTTATTAAGGGATGAATAATACGTCAATATAAATATCTCTCACTTATTTAAA | 0.0926 | 0.0816 | – | –
40 | ACAGACGAAGGAGCCGCAAAGAAGTTATTAACGGATGAATAATCCATCAATATAAATATCTCTCACTTATTTAAA | 0.138 | 0.233 | – | –

Row | Sequence | cleaved RNA product abundance [1] | cleaved RNA product abundance [2] | cleaved RNA product abundance [3] | cleaved RNA product abundance [4]
41 | ACAGACGAAGGAGCCGCAAAGAATTTATTAAGGGATGAATAAGCCCTCAATATAAATATCTCTCACTTATTTAAA | 0.502 | 0.573 | – | –
42 | CGACATGTCCCGCTTCTTTCATTAATCCGTTAGTAACTGTTTTGCTATAGACATTTACCTTTTAAGAGGAGGAAT | – | – | – | 0.536
43 | ACAGACGAAGGAGCCGCAAAGAAGATATTAAGAGATGAATAATCCCTCAATATAAATATCTCTCACTTATTTAAA | 0.128 | 0.221 | – | –
44 | ACAGACGAAGGAGCCGCACAGAAGTTATTAAGGGATGAATAATACCTCAATATAAATATCTCTCACTTATTTAAA | 0.118 | – | – | –
45 | ACAGACGAAGGAGCCGCAAATAAATTATTAAGGGATGAATAATCCCCCAATATAAATATCTCTCACTTATTTAAA | – | 0.381 | – | –
46 | ACAGACGAAGGAGCCGCAAAGAAGTTATTAAAGGATAAATAATCTCTCAATATAAATATCTCTCACTTATTTAAA | – | 0.112 | – | –
47 | ACAGACGAAGGAGCCGCAAAGACATTATTAAGGGATGAATAATCCCTCAATATAAATATCTCTCACTTATTTAAA | – | 0.85 | – | –
48 | CGACATGTCCCGCTTCTTTCATTAATTCGTTAGCAACTGTTTTGCTATATACATTTACGTTTTAAGAGGAGGAAT | – | – | – | 0.881
49 | ACAGACGAAGGAGCCGCAAAGAAGTTATTAAAGGATGAATAATCCCTCAATACAAATATCTCTCACTTATTTAAA | 0.126 | 0.0875 | – | –
50 | ACAGACGAAGGAGCCGCGAAGAAGTTATTAAGGGATGAATAATACCTCAATATAAATATCTCTCACTTATTTAAA | – | 0.117 | – | –
51 | ACAGACGAAGGAGCCGCAAAGAAGTTATTAAGAGATGAATAATCACTCAATATAAATATCTCTCACTTATTTAAA | 0.0955 | 0.127 | – | –
52 | ACAGACGAAGGAGCCGCAAAGAAGTTATTAATGGATGAATAATCCCTAAATATAAATATCTCTCACTTATTTAAA | 0.163 | 0.196 | – | –
53 | ACAGACGAAGGAGCCGCAAAGAAGTTACTAAGGGATGAATAATCCCTCAATATAAATATCTCTCACTTATTTAAA | 0.219 | 0.314 | 0.275 | –
54 | ACAGACGAAGGAGCCGCAAAGAAGTTATTAACGGATGAATAATCTCTCAATATAAATATCTCTCACTTATTTAAA | 0.0813 | 0.183 | – | –
55 | ACAGACGAAGGAGCCGCAAATAAGTTATTAAGGCATGACTAATCCCTCAATATAAATATCTCTCACTTATTTAAA | – | 0.144 | – | –
56 | ACAGACGAAGGAGCCGCATAGAAGTTATTAAGGGATGAATAATCCCTGAATATAAATATCTCTCACTTATTTAAA | – | 0.679 | – | –
57 | ACAGACGAAGGAGCCGCAAAGAAGTTAATAAGGTATGAATAATCCCTCAATATAAATATCTCTCACTTATTTAAA | 0.0951 | 0.15 | – | –
58 | CGACATGTCCCGCTTCTTTCATTAATCCGTTAGCAAATGTTTTTCTATATACATTTACCTTTTAAGAGGAGGAAT | – | – | – | 0.753
